Experimental data published in US20240287172A1 (SCIRHOM, published 2024).
Positions count from the first letter of the chain named.

B1: antibody 48 (antibody, V domains shown)
VH: QVQLQQSGTELVRPGTSVKVSCKASGYAFTNYLIEWVKQRPGQGLEWIGVINPGSGFTKYNEKFKGKATLTADKSSSTVYMHLSSLTSEDSAVYFCARGLYRAMDYWGQGTSVTVSS
VL: DIQMTQSPASQSASLGESVTITCLASQTIATWLAWYQQKPGKSPQLLIYGATTLADGVPSRFSGGGSGTKFSFKISSLQAEDFVSYYCQQLYSTPYTFGGGTKLEIK
notes: mouse IgG, kappa light chain; also called clone #48; purified antibody 48
B2: antibody 50 (antibody, V domains shown)
VH: B1 VH with T9A, T16A, T30S, V79A, H82Q
VL: B1 VL with A30G, G50A, T52A, T53S, S85N, L91I
notes: mouse IgG, kappa light chain; also called clone #50; purified antibody 50
B3: antibody 42 (antibody, V domains shown)
VH: QVTLKESGPGILQPSQTLSLTCSLSGFSLSTFGRGVGWIRQPSGKGLEWLAHIWWDDEKYYNPALKSRLTISKDTSKNQVFLRIANVDTADTATYYCARIQNYGSNYWYFDVWGTGTTVTVSS
VL: LIVLTQSPAIMSASPGEKVTMTCGATSRISYMFWYQQKPGSSPRVLIYDTSNLASGVPVRFSGSGSGTSYSLTISRVEAEDVATYYCQQWNSYPLTFGAGTKLELK
notes: mouse IgG, kappa light chain; also called clone #42; purified antibody 42
B4: antibody 5 (antibody, V domains shown)
VH: B3 VH with L24F, R34M, P63S, D74A, V80A, R83K, Q101S, D111N
VL: QVVLTQSPALMSASPGEKVTMTCSAGSSVSCMYWYQQKPGSSPRVLIYDTSNLASGVPARFTGSGSGTSYSLTISRMEAEDAASYYCQQWNSYPLTFGAGTKLELK
notes: mouse IgG, kappa light chain; also called clone #5; purified antibody 5
B5: antibody 44 (antibody, V domains shown)
VH: B3 VH with L24F, R34M, G44E, E58D, V80I, R83K, A85T, D91E, A98S, Q101G
VL: QIVLTQSPAVMSASPGEKVTMTCTASSSVYYMYWYQQTPGSSPRLLIYDTSNLASGVPVRFSGSGSGTSYSLTISRMEAEDAATYYCQQWNTYPLTFGAGTKLELK
notes: mouse IgG, kappa light chain; also called clone #44; purified antibody 44
B6: antibody 43 (antibody, V domains shown)
VH: B3 VH with T3A, L24F, R34M, P42S, H52N, E58D, T75A, V80A, R83K, Q101G
VL: B3 VL with L1Q, K18R, G24S, T26N, F33Y, V45L, V77M, V82A, Y86N, N91S
notes: mouse IgG, kappa light chain; also called clone #43; purified antibody 43
B7: antibody 22 (antibody, V domains shown)
VH: B3 VH with L24F, R34M, P63S, D74A, R83K, Q101S, D111N
VL: B4 VL with C31Y, S84T
notes: mouse IgG, kappa light chain; also called clone #22; purified antibody 22

Target: T1, hiR2-FL-T530P-T7 (human, UniProt Q6PJF5 1-856)
T1 sequence: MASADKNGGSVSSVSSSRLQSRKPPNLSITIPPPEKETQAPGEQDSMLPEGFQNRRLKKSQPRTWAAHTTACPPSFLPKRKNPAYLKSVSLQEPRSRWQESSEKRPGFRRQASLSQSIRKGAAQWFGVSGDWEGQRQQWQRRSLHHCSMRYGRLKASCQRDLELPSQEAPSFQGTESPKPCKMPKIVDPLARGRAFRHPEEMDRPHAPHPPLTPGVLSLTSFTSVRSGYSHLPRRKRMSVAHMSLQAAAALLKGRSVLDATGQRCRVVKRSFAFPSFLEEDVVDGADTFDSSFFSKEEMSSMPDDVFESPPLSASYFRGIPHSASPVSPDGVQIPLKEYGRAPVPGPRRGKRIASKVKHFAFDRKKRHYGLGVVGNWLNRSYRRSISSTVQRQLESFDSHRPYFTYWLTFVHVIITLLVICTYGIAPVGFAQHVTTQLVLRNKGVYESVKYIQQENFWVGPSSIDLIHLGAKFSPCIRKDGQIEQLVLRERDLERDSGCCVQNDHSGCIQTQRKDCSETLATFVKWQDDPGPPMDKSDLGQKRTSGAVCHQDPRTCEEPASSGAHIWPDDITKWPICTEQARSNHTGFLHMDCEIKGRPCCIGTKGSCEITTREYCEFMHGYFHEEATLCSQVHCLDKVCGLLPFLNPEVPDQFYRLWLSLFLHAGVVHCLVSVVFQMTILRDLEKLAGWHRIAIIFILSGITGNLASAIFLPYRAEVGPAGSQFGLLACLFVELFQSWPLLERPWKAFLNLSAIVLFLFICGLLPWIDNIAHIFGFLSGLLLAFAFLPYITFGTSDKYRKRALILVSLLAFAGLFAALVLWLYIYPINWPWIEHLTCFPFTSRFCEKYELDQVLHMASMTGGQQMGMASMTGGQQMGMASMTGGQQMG
Test: FACS, MEF-DKO cells, 3 µg/ml

With B1 as the binder, how does the “loss of binding vs wild type” value read?
The value was at least 30%.

Which “loss of binding vs wild type” value does the source give for B2 here?
The value was at least 30%.

With B3 as the binder, how does the “loss of binding vs wild type” value read?
Its value is at least 30%.

Target: T2, hiR2-FL-P532A-T7 (human, UniProt Q6PJF5 1-856)
T2 sequence: T1 sequence with P530T, P532A
Test: FACS, MEF-DKO cells, 3 µg/ml

How did the “loss of binding vs wild type” value turn out when B4 was run?
Its value is at least 60%.

For B3, which “loss of binding vs wild type” value is on record?
Its value is at least 60%.

How did the “loss of binding vs wild type” value turn out when B5 was run?
Its value is at least 60%.

For B6, which “loss of binding vs wild type” value is on record?
The value was at least 60%.

How did the “loss of binding vs wild type” value turn out when B7 was run?
The value was at least 30%.

Target: T3, hiR2-FL-A560S-T7 (human, UniProt Q6PJF5 1-856)
T3 sequence: T1 sequence with P530T, A560S
Test: FACS, MEF-DKO cells, 3 µg/ml

B1 was tested. Which “loss of binding vs wild type” value did it give?
The value was at least 30%.

B2 was tested. Which “loss of binding vs wild type” value did it give?
Its value is at least 30%.

Which “loss of binding vs wild type” value does the source give for B3 here?
The value was at least 30%.
